Molecular target: T1, ATAD3A-HA, in vitro translated (UniProt Q9NVI7-2 1-586)
T1 construct: ATAD3A (ATPase family AAA domain-containing 3A); the truncation map of the ATAD3A-HA plasmids ends at residue 586, which fits the 586-residue isoform; read as C-terminal; also called ATAD3A-HA (pcDNA3.1 vector); source: in vitro translated (TnT quick coupled transcription/translation, Promega), then purified
T1 sequence (looked up): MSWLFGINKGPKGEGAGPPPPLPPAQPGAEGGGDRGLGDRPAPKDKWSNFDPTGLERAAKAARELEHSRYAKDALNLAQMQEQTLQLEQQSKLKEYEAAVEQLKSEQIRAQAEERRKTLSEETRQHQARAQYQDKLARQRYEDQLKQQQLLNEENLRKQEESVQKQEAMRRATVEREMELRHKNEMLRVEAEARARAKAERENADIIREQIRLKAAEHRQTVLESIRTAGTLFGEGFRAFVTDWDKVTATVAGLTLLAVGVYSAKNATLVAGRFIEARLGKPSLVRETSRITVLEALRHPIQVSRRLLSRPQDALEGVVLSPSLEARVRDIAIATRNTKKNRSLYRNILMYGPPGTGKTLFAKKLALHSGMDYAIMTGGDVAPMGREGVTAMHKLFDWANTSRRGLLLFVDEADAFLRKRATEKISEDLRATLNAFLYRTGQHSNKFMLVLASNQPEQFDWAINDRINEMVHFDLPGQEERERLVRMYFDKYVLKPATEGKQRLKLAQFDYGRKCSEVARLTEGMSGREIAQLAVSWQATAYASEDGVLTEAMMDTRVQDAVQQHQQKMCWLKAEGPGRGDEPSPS
Experiment: co-IP; P4HA2-FLAG and ATAD3A-HA made by TnT quick coupled transcription/translation (30 °C, 90 min), purified, then co-IP
Details: both partners purified

B1: P4HA2-FLAG, in vitro translated (natural protein, UniProt O15460 1-535, looked up)
chain: MKLWVSALLMAWFGVLSCVQAEFFTSIGHMTDLIYAEKELVQSLKEYILVEEAKLSKIKSWANKMEALTSKSAADAEGYLAHPVNAYKLVKRLNTDWPALEDLVLQDSAAGFIANLSVQRQFFPTDEDEIGAAKALMRLQDTYRLDPGTISRGELPGTKYQAMLSVDDCFGMGRSAYNEGDYYHTVLWMEQVLKQLDAGEEATTTKSQVLDYLSYAVFQLGDLHRALELTRRLLSLDPSHERAGGNLRYFEQLLEEEREKTLTNQTEAELATPEGIYERPVDYLPERDVYESLCRGEGVKLTPRRQKRLFCRYHHGNRAPQLLIAPFKEEDEWDSPHIVRYYDVMSDEEIERIKEIAKPKLARATVRDPKTGVLTVASYRVSKSSWLEEDDDPVVARVNRRMQHITGLTVKTAELLQVANYGVGGQYEPHFDFSRNDERDTFKHLGTGNRVATFLNYMSDVEAGGATVFPDLGAAIWPKKGTAVFWYNLLRSGEGDYRTRHAACPVLVGCKWVSNKWFHERGQEFLRPCGSTEVD
notes: P4HA2 (Prolyl-4-Hydroxylase Alpha Subunit 2); read as C-terminal; also called P4HA2-FLAG (pcDNA3.1 vector); source: in vitro translated (TnT quick coupled transcription/translation, Promega), then purified
- binding result: binds

Reference: paper PMC12501296, “P4HA2 interacted with ATAD3A to modulate PINK1/parkin-dependent mitophagy and ^125I brachytherapy sensitization in esophageal carcinoma” (Cell Death & Disease, 2025)
